PMC9017566

Biological target: hexon protein of recombinant chimpanzee adenovirus C68 (AdC68), free hexon trimer (AEX-HPLC "impurity" peak) (chimpanzee adenovirus C68)
Test: native MS; native SEC-HPLC/MS of the AEX-HPLC "impurity" fraction; BEH SEC 200Å column, isocratic 40 mM ammonium formate, 25°C; Orbitrap EMR, gentle source parameters to keep non-covalent complexes assembled

## hexon protein of recombinant chimpanzee adenovirus C68 (AdC68), free hexon trimer (AEX-HPLC "impurity" peak) (natural protein)
  stoichiometry N: 3
